Measurements as given in patent US20160002343A1 (AbbVie / Abbott, published 2016).

B1: DVD2671 (bispecific antibody)
VH: EVQLLESGGGLVQPGGSLRLSCAASGFTFSNYGMSWVRQAPGKGLEWVASIRSGGGRTYYSDNVKGRFTISRDNSKNTLYLQMNSLRAEDTAVYYCVRYDHYSGSSDYWGQGTLVTVSSASTKGPSVFPLAPEVQLVESGGGLVQPGNSLTLSCVASGFTFSNYGMHWIRQAPKKGLEWIAMIYYDSSKMNYADTVKGRFTISRDNSKNTLYLEMNSLRSEDTAMYYCAVPTSHYVVDVWGQGVSVTVSS
VL: DVVMTQSPLSLPVTPGEPASISCKSSQSLLDSDGKTYLNWLLQKPGQSPQRLIYLVSKLDSGVPDRFSGSGSGTDFTLKISRVEAEDVGVYYCWQGTHFPRTFGQGTKVEIKRTVAAPDIQMTQSPASLSASLEEIVTITCQASQDIGNWLAWYQQKPGKSPQLLIYGATSLADGVPSRFSGSRSGTQFSLKISRVQVEDIGIYYCLQAYNTPWTFGGGTKLELK
notes: DVD-Ig; also called AbetaLSTfR
B2: muTfR(AB405)-SL-muTNF(8C11) (bispecific antibody)
VH: QVQLVQSGAEVKKPGASVKVSCKASGFTFSNYGMHWIRQAPGQGLEWIAMIYYDSSKMNYADTVKGRFTITRDNSTNTLYMELSSLRSEDTAVYYCAVPTSHYVVDVWGQGTTVTVSSASTKGPEFQLQQSGPELVKPGASVRISCKASGYSFTDYNMNWVKQSNGKSLEWVGVINPNYGSSTYNQKFKGKATLTVDQSSSTAYMQLNSLTSEDSAVYYCARKWGQLGRGFFDVWGTGTTVTVSS
VL: EIVMTQSPATLSVSPGERATLSCQASQDIGNWLAWYQQKPGQSPRLLIYGATSLADGVPARFSGSRSGTEFTLTISSLQSEDFAVYYCLQAYNTPWTFGGGTKVEIKRTVAAPSVFIFPPQIVLSQSPAILSASPGEKVTMTCRASSSVSYMHWFQQKPGSSPKPWIYATSNLASGVPARFSGSGSGTSYSLTISRVEAEDAATYYCQQWSSSPLTFGAGTKLELK
notes: DVD-Ig; outer AB405 (TfR), inner 8C11 (TNF); also called TfR(AB405)-SL-TNF DVD-Ig protein; copies: 2 + 2
B3: AB405 (antibody, from another filing, V domains shown)
VH: QVQLVQSGAEVKKPGASVKVSCKASGFTFSNYGMHWIRQAPGQGLEWIAMIYYDSSKMNYADTVKGRFTITRDNSTNTLYMELSSLRSEDTAVYYCAVPTSHYVVDVWGQGTTVTVSS
VL: EIVMTQSPATLSVSPGERATLSCQASQDIGNWLAWYQQKPGQSPRLLIYGATSLADGVPARFSGSRSGTEFTLTISSLQSEDFAVYYCLQAYNTPWTFGGGTKVEIKR
B4: AB402 (antibody, from another filing, V domains shown)
VH: EVQLVESGGGLVQPGGSLRLSCAASGFTFSNYGMHWIRQAPGKGLEWIAMIYYDSSKMNYADTVKGRFTISRDNAKNSLYLQMNSLRAEDTAVYYCAVPTSHYVVDVWGQGTTVTVSS
VL: AIQMTQSPSSLSASVGDRVTITCQASQDIGNWLAWYQQKPGKSPKLLIYGATSLADGVPSRFSGSRSGTDFTLTISSLQPEDFATYYCLQAYNTPWTFGGGTKVEIKR
B5: AB403 (antibody, V domains shown)
VH: B4 VH
VL: EIVMTQSPATLSVSPGERATLSCQASQDIGNWLAWYQQKPGQSPRLLIYGATSLADGVPARFSGSRSGTEFTLTISSLQSEDFAVYYCLQAYNTPWTFGGGTKVEIK
notes: also called humanized variant of AB221

What was measured:
[1] = molecular target: T1, mouse Transferrin Receptor overexpressed on Hek 293 cells (mouse, UniProt Q62351 1-763); assay: cell-based MSD-ECL binding, Hek293/mTfR cells
T1 construct: whole, on cells; also called mTfR; Hek293/mTfR
T1 sequence (Q62351 whole entry): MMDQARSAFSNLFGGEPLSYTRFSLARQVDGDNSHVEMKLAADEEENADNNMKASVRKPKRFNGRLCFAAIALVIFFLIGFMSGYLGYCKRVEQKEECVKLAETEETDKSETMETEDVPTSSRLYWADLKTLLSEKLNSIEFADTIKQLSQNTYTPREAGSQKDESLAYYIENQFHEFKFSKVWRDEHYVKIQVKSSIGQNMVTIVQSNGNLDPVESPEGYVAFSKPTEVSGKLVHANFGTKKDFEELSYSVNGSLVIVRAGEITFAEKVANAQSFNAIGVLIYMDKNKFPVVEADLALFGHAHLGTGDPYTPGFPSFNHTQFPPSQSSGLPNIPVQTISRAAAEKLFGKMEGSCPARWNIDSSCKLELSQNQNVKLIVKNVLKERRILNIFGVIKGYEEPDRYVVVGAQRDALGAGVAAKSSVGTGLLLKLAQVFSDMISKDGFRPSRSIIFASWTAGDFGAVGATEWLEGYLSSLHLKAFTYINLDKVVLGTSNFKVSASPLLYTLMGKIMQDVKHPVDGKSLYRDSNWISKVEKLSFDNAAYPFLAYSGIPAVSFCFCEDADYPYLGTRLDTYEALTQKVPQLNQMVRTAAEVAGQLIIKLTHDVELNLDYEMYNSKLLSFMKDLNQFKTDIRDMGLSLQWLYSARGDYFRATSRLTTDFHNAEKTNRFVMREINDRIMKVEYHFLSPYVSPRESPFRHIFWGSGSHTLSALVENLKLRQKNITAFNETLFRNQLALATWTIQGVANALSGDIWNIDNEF
Experimental: (§1) Meso-scale Discovery (MSD) Electrochemiluminescence (ECL) assays to screen for antibodies or DVD-Ig proteins that bind a desired target antigen expressed on the cell surface were performed as follows: Hek 293 cells overexpressing mouse Transferrin Receptor were added onto MSD 96-well plates (MSD Cat# L11 XB-3, lot#2290-EA). The plates which were blocked using blocking buffer (30% FBS Serum (Hyclone) in PBS) at 37° C. for 1 hour. After incubating at room temperature (RT) for 30 minutes with mild agitation, plates were washed with DPBS 3 times and Abs/DVD-Ig proteins (10,000 ng/ml) were added. After incubating for 1 hour at RT, plates were washed 3 times with DPBS and 25 μl of Goat anti-human Sulfo TAG (MSD Cat# R32AC-, Lot# W001162) at 1 μg/ml was added. Following incubation at RT for 1 hour, plates were washed and MSD read buffer was added before reading on a MSD SECTOR Imager 6000. EC50 values were obtained using Xlfit4 software package.

[2] = molecular target: T1, mouse Transferrin Receptor …; assay: EC50 column of Table 13, taken as the cell-based mTfR binding assay
Experimental: as §1

[3] = molecular target: T1, mouse Transferrin Receptor …; assay: 293/mTfR cell-based assay
Experimental: as §1

TNF = molecular target: T2, TNF (mouse, UniProt P06804 80-235); assay: cell-based or functional assay
T2 sequence (looked up): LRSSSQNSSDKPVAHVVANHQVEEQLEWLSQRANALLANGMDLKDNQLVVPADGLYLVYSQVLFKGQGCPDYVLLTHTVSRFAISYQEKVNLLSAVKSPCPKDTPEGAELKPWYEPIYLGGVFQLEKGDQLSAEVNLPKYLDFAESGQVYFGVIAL

[4] = molecular target: mouse Transferrin Receptor overexpressed on Hek 293 cells (mouse) (UniProt Q62351); assay: TfR binding EC50, cell-based assay (repeats Table 7)
mouse Transferrin Receptor overexpressed on Hek 293 cells (mouse), sequence (Q62351 whole entry): as the sequence (Q62351 whole entry) above

[5] = molecular target: mouse Transferrin Receptor overexpressed on Hek 293 cells (mouse) (UniProt Q62351); assay: mTfR binding cell-based assay
[6] = molecular target: mouse Transferrin Receptor overexpressed on Hek 293 cells (mouse) (UniProt Q62351); assay: cell-based MSD-ECL binding, Hek293/mTfR cells
rmTfR (123-763) = molecular target: T3, rmTfR (123-763) (mouse, UniProt Q62351 123-763); assay: Biacore SPR, antibody captured by anti-human IgG Fc, rmTfR (123-763) in solution
T3 construct: range 123-763; also called recombinant mouse transferrin receptor 123-763
T3 sequence (Q62351 123-763): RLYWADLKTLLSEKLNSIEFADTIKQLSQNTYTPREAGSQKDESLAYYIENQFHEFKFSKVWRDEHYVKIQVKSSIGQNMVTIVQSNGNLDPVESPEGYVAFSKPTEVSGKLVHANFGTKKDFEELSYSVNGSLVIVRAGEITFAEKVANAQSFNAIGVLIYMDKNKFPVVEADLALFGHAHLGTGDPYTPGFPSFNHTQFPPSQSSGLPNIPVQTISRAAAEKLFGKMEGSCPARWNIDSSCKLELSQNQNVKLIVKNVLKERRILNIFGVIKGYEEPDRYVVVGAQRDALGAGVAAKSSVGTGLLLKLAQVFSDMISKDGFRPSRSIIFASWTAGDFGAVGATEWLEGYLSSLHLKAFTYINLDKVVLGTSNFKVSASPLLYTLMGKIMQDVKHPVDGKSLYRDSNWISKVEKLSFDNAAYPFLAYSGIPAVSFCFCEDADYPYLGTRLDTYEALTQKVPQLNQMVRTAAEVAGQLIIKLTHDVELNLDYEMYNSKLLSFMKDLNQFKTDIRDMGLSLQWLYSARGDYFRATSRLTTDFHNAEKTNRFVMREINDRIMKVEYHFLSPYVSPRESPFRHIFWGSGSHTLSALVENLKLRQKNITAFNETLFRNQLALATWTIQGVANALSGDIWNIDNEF
Experimental: The BIACORE assay (Biacore, Inc, Piscataway, N.J.) was used to determine the affinity of antibodies or DVD-Ig proteins with kinetic measurements of on-rate and off-rate constants. Binding of antibodies or DVD-Ig protein to a target antigen (for example, a purified recombinant target antigen) was determined by surface plasmon resonance-based measurements with a Biacore® 1000 or 3000 instrument (Biacore® AB, Uppsala, Sweden) using running HBS-EP (10 mM HEPES [pH 7.4], 150 mM NaCl, 3 mM EDTA, and 0.005% surfactant P20) at 25° C. All chemicals were obtained from Biacore® AB (Uppsala, Sweden) or otherwise from a different source as described in the text. For example, approximately 5000 RU of goat anti-human IgG, (Fcγ), fragment specific polyclonal antibody (Pierce Biotechnology Inc, Rockford, Ill.) diluted in 10 mM sodium acetate (pH 4.5) was directly immobilized across a CM5 research grade biosensor chip using a standard amine coupling kit according to manufacturer's instructions and procedures at 25 μg/ml. Unreacted moieties on the biosensor surface were blocked with ethanolamine. Modified carboxymethyl dextran surface in flowcell 2 and 4 was used as a reaction surface. Unmodified carboxymethyl dextran without goat anti-human IgG in flow cell 1 and 3 was used as the reference surface. For kinetic analysis, rate equations derived from the 1:1 Langmuir binding model were fitted simultaneously to association and dissociation phases of all eight injections (using global fit analysis) with the use of BIAevaluation 4.0.1 software. Purified antibodies or DVD-Ig proteins were diluted in HEPES-buffered saline for capture across goat anti-human IgG specific reaction surfaces. Antibodies or DVD-Ig proteins to be captured as ligands (25 μg/ml) were injected over reaction matrices at a flow rate of 5 μl/minute. The association and dissociation rate constants, kon (M⁻¹ s⁻¹) and koff (s⁻¹) were determined under a continuous flow rate of 25 μl/minute. Rate constants were derived by making kinetic binding measurements at different antigen concentrations ranging from 10-200 nM. The equilibrium dissociation constant (M) of the reaction between antibodies or DVD-Ig proteins and the target antigen was then calculated from the kinetic rate constants by the following formula: KD=koff/kon. Binding was recorded as a function of time and kinetic rate constants were calculated.

[7] = molecular target: T1, mouse Transferrin Receptor …; assay: mTfR binding cell-based assay
Experimental: as §1

Row | Binder | EC50 [1] | EC50 [5] | EC50 [6] | Kd (rmTfR (123-763)) | koff (rmTfR (123-763)) | kon (rmTfR (123-763)) | other results
1 | B1 | 1.2 nM |  |  |  |  |  | EC50 [2]: 1.2 nM
2 | B2 |  |  |  |  |  |  | EC50 [3]: 3.76 nM; L929 TNF Neutralization assay IC50 (TNF): 4.94 nM
3 | B3 |  | 13.6 nM | 13.6 nM |  |  |  | EC50 [4]: 13.6 nM
4 | B4 |  | 0.06 nM | 0.06 nM | 3.7 nM | 6.12e-05 s⁻¹ | 16400 M⁻¹ s⁻¹ | 
5 | B5 | 0.09 nM |  |  | 3.8 nM | 8.39e-05 s⁻¹ | 22000 M⁻¹ s⁻¹ | EC50 [7]: 0.09 nM
